Molecular target: Ross River virus (RRV), WT T48 strain, UV-inactivated virus coated on plates (Ross River virus, strain T48)

How did the RRV entry into HEK 293T cells at 0 and 6 hpi (flow cytometry with anti-alphavirus antibody), RRV pre-incubated with the PTX3 fragment, compared with full-length rhPTX3 (% less efficient than full-length rhPTX3) turn out when “recombinant human PTX3 N-terminal fragment (domain or fragment)” was run?
Its RRV entry into HEK 293T cells at 0 and 6 hpi (flow cytometry with anti-alphavirus antibody), RRV pre-incubated with the PTX3 fragment, compared with full-length rhPTX3 (% less efficient than full-length rhPTX3) is 30.

Reference: PMC4335073
